Experimental data from the supplement of paper PMC10567573.

B1: GOLPH3 (parent)
chain: FAPLLDEQYDLATKRVRQLLDLDP

Variants of: B1
Experiment: protein stability index of a GFP-peptide fusion (GPS, HEK-293T) (PSI 1-6); higher = more stable
Conditions: c terminus: a fixed tail appended
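Further: lentivirally expressed fusions sorted by FACS into six bins by GFP to DsRed ratio, PSI derived from sequencing read proportions per bin multiplied by bin number.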

Variant | protein stability index
L11Q | 3.52
L11E | 3.48
L11V | 2.21
L11F | 1.94
L11G | 2.38
L11C | 2.26
L11I | 2.36
L11P | 2.91
L11H | 2.73
L11W | 2.82
L11N | 2.28
L11D | 3.09
L11M | 3.03
L11S | 2.27
L11T | 2.28
L11K | 2.56
L11Y | 2.51
L11A | 3.3
A12F | 1.74
A12T | 2.3
A12Q | 2.16
A12V | 1.88
A12S | 2.36
A12K | 1.99

Variant | protein stability index
A12H | 2.43
A12L | 1.82
A12N | 2.47
A12P | 2.04
A12R | 2.04
A12G | 2.12
A12I | 1.43
A12M | 2.8
A12D | 2.72
A12E | 2.66
A12C | 1.57
P3C | 2.44
P3T | 2.88
P3M | 1.78
P3A | 2.34
P3D | 2.79
P3Y | 2.28
P3L | 1.6
P3V | 2.38
P3I | 1.68
P3H | 3.07
P3Q | 2.05
P3K | 2.44
P3R | 1.87

Variant | protein stability index
P3G | 2.59
P3F | 1.52
P3N | 3.18
P3E | 3.18
P3S | 2.34
P3W | 2.16
K14H | 1.99
K14C | 2.29
K14Q | 1.88
K14D | 2.94
K14E | 2.14
K14S | 2
K14A | 1.76
K14F | 1.17
K14P | 2.29
K14N | 2.02
K14Y | 1.97
K14I | 1.64
K14G | 1.99
K14W | 2.28
K14V | 1.84
K14R | 2.24
K14L | 3.14
K14T | 2.11

Variant | protein stability index
K14M | 1.59
E7P | 2.12
E7V | 1.89
E7I | 1.65
E7W | 2.56
E7S | 2.12
E7R | 2.79
E7G | 1.86
E7T | 1.86
E7F | 1.91
E7A | 1.49
E7H | 1.76
E7N | 1.91
E7D | 2.02
E7M | 1.9
E7K | 1.87
E7Q | 2.66
E7C | 1.98
E7L | 1.55
E7Y | 1.48
Q18A | 2.52
Q18I | 2.34
Q18R | 1.44
Q18D | 2.43

Variant | protein stability index
Q18W | 2.36
Q18M | 2.02
Q18S | 2.11
Q18H | 2.47
Q18E | 2.06
Q18Y | 1.74
Q18K | 2.18
Q18L | 2.52
Q18T | 2.21
Q18V | 2.99
Q18P | 2.04
Q18F | 2.67
Q18G | 2.08
Q18C | 1.38
Q18N | 2.2
V16C | 2.09
V16W | 1.37
V16T | 2.59
V16Q | 2.4
V16N | 2
V16P | 2.45
V16E | 3.32
V16L | 1.51
V16S | 1.74

Variant | protein stability index
V16Y | 2.58
V16K | 1.54
V16H | 1.65
V16G | 2.75
V16A | 2.12
V16R | 1.82
V16M | 1.96
V16D | 2.02
V16I | 2.19
F1T | 4.11
F1N | 3.86
F1C | 2.5
F1I | 3.11
F1Y | 2.39
F1E | 4.59
F1V | 3.06
F1W | 2.46
F1Q | 4.03
F1H | 4
F1M | 3.58
F1L | 3.67
F1P | 4.59
F1G | 4.41
F1K | 3.61

Variant | protein stability index
F1D | 4.39
F1S | 4.39
L4N | 3.2
L4I | 2.33
L4G | 2.27
L4M | 1.76
L4W | 2.28
L4P | 2.35
L4C | 1.67
L4Q | 2.12
L4R | 1.43
L4T | 1.72
L4S | 1.75
L4V | 3.17
L4D | 3.39
L4F | 2.01
L4Y | 2.65
L4E | 2.79
L4K | 2.34
L4H | 2.31
L4A | 1.81
Y9G | 2.24
Y9P | 2.59
